According to US20060110789:

Assays:
[1] = biological target: T1, (5)M3+TE (module 3 of DEBS with the N-terminal linker of module 5, fused to thioesterase), Q03132
T1 chain: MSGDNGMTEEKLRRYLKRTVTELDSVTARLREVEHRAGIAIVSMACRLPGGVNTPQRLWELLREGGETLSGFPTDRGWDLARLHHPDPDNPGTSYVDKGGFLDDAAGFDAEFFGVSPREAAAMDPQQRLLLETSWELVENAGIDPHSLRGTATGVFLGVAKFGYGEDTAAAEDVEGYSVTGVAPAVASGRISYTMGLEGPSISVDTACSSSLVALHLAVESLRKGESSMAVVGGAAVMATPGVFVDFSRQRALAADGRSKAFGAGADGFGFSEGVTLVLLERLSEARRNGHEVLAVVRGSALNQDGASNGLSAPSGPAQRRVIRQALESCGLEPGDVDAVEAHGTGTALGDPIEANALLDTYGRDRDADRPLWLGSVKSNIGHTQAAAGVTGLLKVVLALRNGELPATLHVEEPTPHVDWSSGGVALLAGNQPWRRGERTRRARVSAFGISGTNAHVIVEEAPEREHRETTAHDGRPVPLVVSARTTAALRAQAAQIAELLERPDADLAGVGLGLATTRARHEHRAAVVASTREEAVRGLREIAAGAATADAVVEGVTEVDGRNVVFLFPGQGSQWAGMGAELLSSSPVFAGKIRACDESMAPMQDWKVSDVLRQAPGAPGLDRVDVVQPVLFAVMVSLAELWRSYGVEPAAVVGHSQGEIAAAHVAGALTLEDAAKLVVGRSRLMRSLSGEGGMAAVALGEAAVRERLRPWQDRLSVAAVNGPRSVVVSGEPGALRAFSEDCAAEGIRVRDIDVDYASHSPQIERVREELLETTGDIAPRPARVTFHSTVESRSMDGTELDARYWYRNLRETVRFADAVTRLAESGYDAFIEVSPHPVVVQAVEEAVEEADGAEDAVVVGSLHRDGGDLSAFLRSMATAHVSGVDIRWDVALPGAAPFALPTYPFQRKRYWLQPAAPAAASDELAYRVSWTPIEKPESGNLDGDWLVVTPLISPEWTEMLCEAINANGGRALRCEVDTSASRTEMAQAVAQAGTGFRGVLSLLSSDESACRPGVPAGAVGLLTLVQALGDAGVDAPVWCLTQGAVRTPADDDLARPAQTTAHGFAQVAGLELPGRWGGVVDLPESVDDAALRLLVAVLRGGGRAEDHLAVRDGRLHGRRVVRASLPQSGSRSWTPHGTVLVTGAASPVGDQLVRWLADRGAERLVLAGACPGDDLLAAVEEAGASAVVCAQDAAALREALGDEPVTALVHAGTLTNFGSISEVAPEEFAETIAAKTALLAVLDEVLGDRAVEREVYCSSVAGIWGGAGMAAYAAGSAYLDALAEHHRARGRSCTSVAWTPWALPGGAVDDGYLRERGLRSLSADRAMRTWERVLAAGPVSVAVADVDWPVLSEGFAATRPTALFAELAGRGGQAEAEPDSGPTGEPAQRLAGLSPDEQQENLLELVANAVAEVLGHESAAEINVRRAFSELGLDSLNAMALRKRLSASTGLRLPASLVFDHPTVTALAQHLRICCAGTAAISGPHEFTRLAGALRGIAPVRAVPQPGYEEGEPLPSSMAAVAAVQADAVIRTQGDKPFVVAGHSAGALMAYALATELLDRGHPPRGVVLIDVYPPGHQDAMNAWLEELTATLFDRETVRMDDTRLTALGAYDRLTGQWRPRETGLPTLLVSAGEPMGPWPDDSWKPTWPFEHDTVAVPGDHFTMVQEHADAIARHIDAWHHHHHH

[2] = biological target: T2, M3+TE (module 3 of DEBS with its own N-terminal linker, fused to thioesterase), Q03132
T2 chain: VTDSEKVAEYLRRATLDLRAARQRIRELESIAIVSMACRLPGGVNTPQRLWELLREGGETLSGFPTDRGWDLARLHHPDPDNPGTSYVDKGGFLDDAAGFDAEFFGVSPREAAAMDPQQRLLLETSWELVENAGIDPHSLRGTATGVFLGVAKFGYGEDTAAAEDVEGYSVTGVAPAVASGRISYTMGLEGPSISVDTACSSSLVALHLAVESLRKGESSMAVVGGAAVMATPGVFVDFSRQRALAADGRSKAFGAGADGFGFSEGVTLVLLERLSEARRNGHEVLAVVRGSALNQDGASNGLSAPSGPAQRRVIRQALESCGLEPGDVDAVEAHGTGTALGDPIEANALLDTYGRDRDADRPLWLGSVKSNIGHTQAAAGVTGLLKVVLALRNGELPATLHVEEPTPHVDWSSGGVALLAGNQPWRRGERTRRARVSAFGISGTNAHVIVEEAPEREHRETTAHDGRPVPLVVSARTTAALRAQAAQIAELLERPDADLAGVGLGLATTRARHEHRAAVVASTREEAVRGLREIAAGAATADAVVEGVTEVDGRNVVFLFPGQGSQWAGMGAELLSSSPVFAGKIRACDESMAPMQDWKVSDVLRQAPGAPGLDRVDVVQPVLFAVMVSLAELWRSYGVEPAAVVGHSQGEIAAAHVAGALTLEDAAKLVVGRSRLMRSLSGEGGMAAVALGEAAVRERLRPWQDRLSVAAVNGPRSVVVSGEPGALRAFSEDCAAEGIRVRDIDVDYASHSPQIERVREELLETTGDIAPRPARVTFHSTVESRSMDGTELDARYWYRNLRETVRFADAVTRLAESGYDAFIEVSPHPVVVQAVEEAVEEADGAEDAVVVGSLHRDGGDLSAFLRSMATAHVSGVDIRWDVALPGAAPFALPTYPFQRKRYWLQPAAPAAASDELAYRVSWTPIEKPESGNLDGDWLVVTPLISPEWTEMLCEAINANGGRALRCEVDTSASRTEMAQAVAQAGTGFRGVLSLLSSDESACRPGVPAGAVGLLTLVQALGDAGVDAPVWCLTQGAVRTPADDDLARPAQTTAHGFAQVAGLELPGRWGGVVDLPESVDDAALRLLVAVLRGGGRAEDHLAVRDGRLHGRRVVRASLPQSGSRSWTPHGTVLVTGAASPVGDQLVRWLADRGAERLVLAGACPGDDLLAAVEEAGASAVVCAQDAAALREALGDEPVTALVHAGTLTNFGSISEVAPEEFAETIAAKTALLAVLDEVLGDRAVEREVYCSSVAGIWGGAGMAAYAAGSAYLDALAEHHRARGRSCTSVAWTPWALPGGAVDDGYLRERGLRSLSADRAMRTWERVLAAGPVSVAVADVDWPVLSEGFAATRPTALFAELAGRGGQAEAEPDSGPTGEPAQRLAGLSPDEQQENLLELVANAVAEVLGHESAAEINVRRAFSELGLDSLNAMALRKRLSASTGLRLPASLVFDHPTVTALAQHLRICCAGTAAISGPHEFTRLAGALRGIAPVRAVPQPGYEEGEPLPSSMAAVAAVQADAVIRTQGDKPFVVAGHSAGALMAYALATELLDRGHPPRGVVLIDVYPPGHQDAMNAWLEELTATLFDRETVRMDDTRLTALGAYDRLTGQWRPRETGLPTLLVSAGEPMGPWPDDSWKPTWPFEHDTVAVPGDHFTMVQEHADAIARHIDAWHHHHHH

B1: M2 (module 2 of DEBS with its natural C-terminal linker) (protein)
chain: MSGDNGMTEEKLRRYLKRTVTELDSVTARLREVEHRAGIAIVGMACRLPGEVDSPERLWELITSGRDSAAEVPDDRGWVPDELMASDAAGTRAHGNFMAGAGDFDAAFFGISPREALAMDPQQRQALETTWEALESAGIPPETLRGSDTGVFVGMSHQGYATGRPRPEDGVDGYLLTGNTASVASGRIAYVLGLEGPALTVDTACSSSLVALHTACGSLRDGDCGLAVAGGVSVMAGPEVFTEFSRQGALSPDGRCKPFSDEADGFGLGEGSAFVVLQRLSDARREGRRVLGVVAGSAVNQDGASNGLSAPSGVAQQRVIRRAWARAGITGADVAVVEAHGTGTRLGDPVEASALLATYGKSRGSSGPVLLGSVKSNIGHAQAAAGVAGVIKVLLGLERGVVPPMLCRGERSGLIDWSSGEIELADGVREWSPAADGVRRAGVSAFGVSGTNAHVIIAEPPEPEPVPQPRRMLPATGVVPVVLSARTGAALRAQAGRLADHLAAHPGIAPADVSWTMARARQHFEERAAVLAADTAEAVHRLRAVADGAVVPGVVTGSASDGGSVFVFPGQGAQWEGMARELLPVPVFAESIAECDAVLSEVAGFSVSEVLEPRPDAPSLERVDVVQPVLFAVMVSLARLWRACGAVPSAVIGHSQGEIAAAVVAGALSLEDGMRVVARRSRAVRAVAGRGSMLSVRGGRSDVEKLLADDSWTGRLEVAAVNGPDAVVVAGDAQAAREFLEYCEGVGIRARAIPVDYASHTAHVEPVRDELVQALAGITPRRAEVPFFSTLTGDFLDGTELDAGYWYRNLRHPVEFHSAVQALTDQGYATFIEVSPHPVLASSVQETLDDAESDAAVLGTLERDAGDADRFLTALADAHTRGVAVDWEAVLGRAGLVDLPGYPFQGKRFWLLPDRTTPRDELDGWFYRVDWTEVPRSEPAALRGRWLVVVPEGHEEDGWTVEVRSALAEAGAEPEVTRGVGGLVGDCAGVVSLLALEGDGAVQTLVLVRELDAEGIDAPLWTVTFGAVDAGSPVARPDQAKLWGLGQVASLERGPRWTGLVDLPHMPDPELRGRLTAVLAGSEDQVAVRADAVRARRLSPAHVTATSEYAVPGGTILVTGGTAGLGAEVARWLAGRGAEHLALVSRRGPDTEGVGDLTAELTRLGARVSVHACDVSSREPVRELVHGLIEQGDVVRGVVHAAGLPQQVAINDMDEAAFDEVVAAKAGGAVHLDELCSDAELFLLFSSGAGVWGSARQGAYAAGNAFLDAFARHRRGRGLPATSVAWGLWAAGGMTGDEEAVSFLRERGVRAMPVPRALAALDRVLASGETAVVVTDVDWPAFAESYTAARPRPLLDRIVTTAPSERAGEPETESLRDRLAGLPRAERTAELVRLVRTSTATVLGHDDPKAVRATTPFKELGFDSLAAVRLRNLLNAATGLRLPSTLVFDHPNASAVAGFLDGTEVRGEAPSALAGLDALEGALPEVPATEREELVQRLERMLAALRPVAQAADASGTGANPSGDDLGEAGVDELLEALGRELDGD
- highest rate constant of tetraketide lactone 2 formation (mismatched linkers) [1]: in the range of 0.02-0.03 min^-1
- maximum rate constant (kcat) of tetraketide lactone 2 formation [2]: 0.0045 ± 0.00017 s⁻¹
